20 molecules from US20250076311A1 (Chugai, published 2025) can be followed below.

B1: GpH7-B3 H268E / GpL16-k0 (antibody, human IgG1, kappa)
heavy: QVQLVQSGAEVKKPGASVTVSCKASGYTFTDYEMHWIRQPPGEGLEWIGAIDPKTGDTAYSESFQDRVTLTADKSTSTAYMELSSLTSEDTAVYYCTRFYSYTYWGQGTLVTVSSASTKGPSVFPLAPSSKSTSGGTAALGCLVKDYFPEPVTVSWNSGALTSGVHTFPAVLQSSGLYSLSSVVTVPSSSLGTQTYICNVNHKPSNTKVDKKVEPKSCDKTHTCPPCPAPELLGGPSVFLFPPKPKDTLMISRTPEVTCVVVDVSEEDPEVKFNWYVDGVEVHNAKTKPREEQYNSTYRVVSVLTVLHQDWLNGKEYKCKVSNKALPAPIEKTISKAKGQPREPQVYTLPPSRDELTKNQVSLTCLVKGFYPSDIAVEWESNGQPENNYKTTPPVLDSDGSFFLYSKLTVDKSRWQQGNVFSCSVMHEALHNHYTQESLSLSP
light: DIVMTQSPLSLPVTPGEPASISCQASESLVHSNRNTYLHWYLQKPGQSPQLLIYKVSNRFSGVPDRFSGSGSGTDFTLKISRVEAEDVGVYYCSQNTHVPPTFGQGTKVEIERTVAAPSVFIFPPSDEQLKSGTASVVCLLNNFYPREAKVQWKVDNALQSGNSQESVTEQDSKDSTYSLSSTLTLSKADYEKHKVYACEVTHQGLSSPVTKSFNRGEC
notes: also called B3 variant H268E
B2: GpH7-B3 K334I / GpL16-k0 (antibody, human IgG1, kappa)
heavy: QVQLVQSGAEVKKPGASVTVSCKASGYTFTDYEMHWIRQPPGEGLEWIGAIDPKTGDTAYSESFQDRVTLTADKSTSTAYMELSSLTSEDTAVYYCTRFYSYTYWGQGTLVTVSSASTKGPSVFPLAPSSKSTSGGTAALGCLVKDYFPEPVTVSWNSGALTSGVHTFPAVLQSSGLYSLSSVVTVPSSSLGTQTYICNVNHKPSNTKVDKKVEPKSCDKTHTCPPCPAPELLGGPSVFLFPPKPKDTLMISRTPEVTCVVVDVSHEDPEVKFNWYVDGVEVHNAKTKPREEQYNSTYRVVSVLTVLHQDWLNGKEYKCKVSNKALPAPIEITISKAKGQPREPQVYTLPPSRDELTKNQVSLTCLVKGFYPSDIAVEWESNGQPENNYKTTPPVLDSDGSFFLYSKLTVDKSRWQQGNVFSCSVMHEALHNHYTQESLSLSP
light: B1 light
notes: also called B3 variant K334I
B3: GpH7-B3 L234W / GpL16-k0 (antibody, human IgG1, kappa)
heavy: not shown
light: B1 light
notes: also called B3 variant L234W
B4: GpH7-B3 L328T / GpL16-k0 (antibody, human IgG1, kappa)
heavy: not shown
light: B1 light
notes: also called B3 variant L328T
B5: GpH7-B3 S239N / GpL16-k0 (antibody, human IgG1, kappa)
heavy: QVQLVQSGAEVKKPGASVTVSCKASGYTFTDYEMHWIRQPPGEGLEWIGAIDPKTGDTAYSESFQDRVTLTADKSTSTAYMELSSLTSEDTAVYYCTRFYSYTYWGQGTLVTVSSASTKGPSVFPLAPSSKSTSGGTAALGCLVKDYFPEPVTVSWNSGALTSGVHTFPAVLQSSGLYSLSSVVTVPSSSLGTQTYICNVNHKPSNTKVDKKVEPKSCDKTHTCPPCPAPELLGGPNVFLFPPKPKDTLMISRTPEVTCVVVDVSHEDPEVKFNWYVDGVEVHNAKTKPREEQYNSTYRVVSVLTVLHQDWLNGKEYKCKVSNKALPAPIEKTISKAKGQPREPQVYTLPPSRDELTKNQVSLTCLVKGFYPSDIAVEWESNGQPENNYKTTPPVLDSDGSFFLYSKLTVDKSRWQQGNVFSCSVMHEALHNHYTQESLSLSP
light: B1 light
notes: also called B3 variant S239N
B6: GpH7-B3 L234Y / GpL16-k0 (antibody, human IgG1, kappa)
heavy: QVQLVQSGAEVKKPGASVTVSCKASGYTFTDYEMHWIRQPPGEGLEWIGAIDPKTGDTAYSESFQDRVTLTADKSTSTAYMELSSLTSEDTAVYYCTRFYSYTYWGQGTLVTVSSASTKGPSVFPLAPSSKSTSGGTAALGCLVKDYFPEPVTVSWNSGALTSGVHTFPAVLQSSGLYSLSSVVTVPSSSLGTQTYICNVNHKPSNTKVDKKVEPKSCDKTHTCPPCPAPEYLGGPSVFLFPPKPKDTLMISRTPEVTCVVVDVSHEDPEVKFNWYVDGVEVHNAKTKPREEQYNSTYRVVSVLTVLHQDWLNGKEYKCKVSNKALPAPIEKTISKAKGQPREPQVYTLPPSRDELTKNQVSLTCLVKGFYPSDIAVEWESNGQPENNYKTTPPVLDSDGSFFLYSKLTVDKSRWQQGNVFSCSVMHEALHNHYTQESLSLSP
light: B1 light
notes: also called B3 variant L234Y
B7: GpH7-B3 S298L / GpL16-k0 (antibody, human IgG1, kappa)
heavy: not shown
light: B1 light
notes: also called B3 variant S298L
B8: GpH7-B3 S239V / GpL16-k0 (antibody, human IgG1, kappa)
heavy: not shown
light: B1 light
notes: also called B3 variant S239V
B9: GpH7-B3 L235W / GpL16-k0 (antibody, human IgG1, kappa)
heavy: not shown
light: B1 light
notes: also called B3 variant L235W
B10: GpH7-B3 S239I / GpL16-k0 (antibody, human IgG1, kappa)
heavy: not shown
light: B1 light
notes: also called B3 variant S239I
B11: GpH7-B3 K334V / GpL16-k0 (antibody, human IgG1, kappa)
heavy: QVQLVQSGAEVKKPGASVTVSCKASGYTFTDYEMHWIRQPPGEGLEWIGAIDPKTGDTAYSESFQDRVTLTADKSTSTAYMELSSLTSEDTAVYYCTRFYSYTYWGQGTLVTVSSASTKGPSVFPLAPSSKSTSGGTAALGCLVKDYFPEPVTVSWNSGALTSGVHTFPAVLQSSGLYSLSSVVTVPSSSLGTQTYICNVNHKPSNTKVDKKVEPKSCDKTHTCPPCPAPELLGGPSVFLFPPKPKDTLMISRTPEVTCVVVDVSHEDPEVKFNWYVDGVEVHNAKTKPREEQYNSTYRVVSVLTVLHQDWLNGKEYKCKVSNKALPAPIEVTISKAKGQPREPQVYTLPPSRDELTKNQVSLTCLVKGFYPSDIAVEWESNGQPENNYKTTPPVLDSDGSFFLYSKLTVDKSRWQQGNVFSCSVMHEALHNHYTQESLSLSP
light: B1 light
notes: also called B3 variant K334V
B12: GpH7-B3 P271G / GpL16-k0 (antibody, human IgG1, kappa)
heavy: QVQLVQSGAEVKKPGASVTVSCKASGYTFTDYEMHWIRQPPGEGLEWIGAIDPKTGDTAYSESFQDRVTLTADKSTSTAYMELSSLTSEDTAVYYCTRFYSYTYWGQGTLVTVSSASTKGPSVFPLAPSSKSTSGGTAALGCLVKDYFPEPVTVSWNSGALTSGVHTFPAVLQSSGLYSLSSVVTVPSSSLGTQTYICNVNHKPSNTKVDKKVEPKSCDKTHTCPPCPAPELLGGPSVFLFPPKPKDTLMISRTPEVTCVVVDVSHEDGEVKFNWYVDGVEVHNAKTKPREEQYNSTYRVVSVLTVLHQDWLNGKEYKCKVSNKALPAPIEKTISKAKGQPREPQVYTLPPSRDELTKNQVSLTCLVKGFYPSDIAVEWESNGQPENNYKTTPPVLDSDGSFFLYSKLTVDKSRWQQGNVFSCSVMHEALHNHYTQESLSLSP
light: B1 light
notes: also called B3 variant P271G
B13: GpH7-B3 K334M / GpL16-k0 (antibody, human IgG1, kappa)
heavy: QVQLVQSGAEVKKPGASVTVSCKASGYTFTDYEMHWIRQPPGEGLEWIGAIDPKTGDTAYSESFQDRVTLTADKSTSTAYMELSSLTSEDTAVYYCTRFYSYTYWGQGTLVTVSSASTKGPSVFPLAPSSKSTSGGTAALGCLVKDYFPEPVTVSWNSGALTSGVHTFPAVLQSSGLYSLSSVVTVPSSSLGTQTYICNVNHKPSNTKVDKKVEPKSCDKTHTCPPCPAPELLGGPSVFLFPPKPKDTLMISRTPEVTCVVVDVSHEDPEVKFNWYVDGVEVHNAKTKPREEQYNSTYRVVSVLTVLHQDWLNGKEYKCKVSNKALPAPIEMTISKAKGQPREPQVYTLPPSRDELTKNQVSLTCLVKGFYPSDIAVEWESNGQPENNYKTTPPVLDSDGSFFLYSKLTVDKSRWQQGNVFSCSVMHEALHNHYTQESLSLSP
light: B1 light
notes: also called B3 variant K334M
B14: GpH7-B3 K326T / GpL16-k0 (antibody, human IgG1, kappa)
heavy: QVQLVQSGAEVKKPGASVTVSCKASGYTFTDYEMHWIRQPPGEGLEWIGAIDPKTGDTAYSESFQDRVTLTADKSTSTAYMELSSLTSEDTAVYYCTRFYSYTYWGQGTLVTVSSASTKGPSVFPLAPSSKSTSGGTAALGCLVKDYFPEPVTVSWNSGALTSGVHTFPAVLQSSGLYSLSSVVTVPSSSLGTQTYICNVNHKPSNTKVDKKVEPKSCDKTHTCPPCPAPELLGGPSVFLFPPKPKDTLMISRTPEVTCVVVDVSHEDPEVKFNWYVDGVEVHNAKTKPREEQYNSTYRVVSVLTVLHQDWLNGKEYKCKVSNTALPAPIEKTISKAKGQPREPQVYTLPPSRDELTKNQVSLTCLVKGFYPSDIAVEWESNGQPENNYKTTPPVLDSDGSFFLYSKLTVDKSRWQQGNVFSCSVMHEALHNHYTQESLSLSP
light: B1 light
notes: also called B3 variant K326T
B15: GpH7-B3 S267A / GpL16-k0 (antibody, human IgG1, kappa)
heavy: not shown
light: B1 light
notes: also called B3 variant S267A
B16: GpH7-B3 Q295L / GpL16-k0 (antibody, human IgG1, kappa)
heavy: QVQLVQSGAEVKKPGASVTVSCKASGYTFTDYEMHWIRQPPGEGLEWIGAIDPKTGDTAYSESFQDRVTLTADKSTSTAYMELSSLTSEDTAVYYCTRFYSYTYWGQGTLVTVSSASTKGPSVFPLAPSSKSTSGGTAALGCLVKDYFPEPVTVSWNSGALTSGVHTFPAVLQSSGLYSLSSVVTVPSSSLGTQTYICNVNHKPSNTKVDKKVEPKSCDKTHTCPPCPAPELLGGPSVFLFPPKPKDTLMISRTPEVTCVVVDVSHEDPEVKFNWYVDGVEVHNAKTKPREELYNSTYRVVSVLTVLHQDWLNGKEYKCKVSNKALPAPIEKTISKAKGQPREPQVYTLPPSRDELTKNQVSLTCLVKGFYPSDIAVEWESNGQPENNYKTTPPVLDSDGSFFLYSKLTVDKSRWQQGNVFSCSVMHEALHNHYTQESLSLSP
light: B1 light
notes: also called B3 variant Q295L
B17: GpH7-B3 I332D / GpL16-k0 (antibody, human IgG1, kappa)
heavy: not shown
light: B1 light
notes: also called B3 variant I332D
B18: GpH7-B3 K334D / GpL16-k0 (antibody, human IgG1, kappa)
heavy: not shown
light: B1 light
notes: also called B3 variant K334D
B19: GpH7-B3 K334Y / GpL16-k0 (antibody, human IgG1, kappa)
heavy: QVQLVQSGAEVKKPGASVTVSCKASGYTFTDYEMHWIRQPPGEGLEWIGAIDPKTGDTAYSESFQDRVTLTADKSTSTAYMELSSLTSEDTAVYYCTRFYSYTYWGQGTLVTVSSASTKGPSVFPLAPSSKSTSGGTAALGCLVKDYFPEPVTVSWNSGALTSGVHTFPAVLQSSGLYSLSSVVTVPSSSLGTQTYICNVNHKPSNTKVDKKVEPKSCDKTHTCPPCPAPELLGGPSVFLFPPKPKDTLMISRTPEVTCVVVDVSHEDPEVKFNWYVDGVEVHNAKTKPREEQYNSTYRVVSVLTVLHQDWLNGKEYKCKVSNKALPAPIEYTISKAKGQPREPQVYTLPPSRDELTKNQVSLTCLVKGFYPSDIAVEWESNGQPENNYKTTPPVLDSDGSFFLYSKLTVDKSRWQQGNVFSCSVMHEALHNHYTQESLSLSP
light: B1 light
notes: also called B3 variant K334Y
B20: GpH7-B3 P331E / GpL16-k0 (antibody, human IgG1, kappa)
heavy: not shown
light: B1 light
notes: also called B3 variant P331E

Positions count from the first letter of the chain named. In names and notes the source's numbering stands.

The first test deals with T1, human FcγRIIaR extracellular domain, His-tagged (human, UniProt P12318 34-217).
T1 construct: also called human FcgRIIaR; FcγRIIa type R
T1 chain: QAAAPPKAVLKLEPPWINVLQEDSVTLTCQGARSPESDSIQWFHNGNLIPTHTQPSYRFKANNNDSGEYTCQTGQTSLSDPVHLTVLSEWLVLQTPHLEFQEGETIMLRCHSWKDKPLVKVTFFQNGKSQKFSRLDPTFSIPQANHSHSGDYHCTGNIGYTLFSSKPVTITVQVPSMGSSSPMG
Kind of test: SPR (Biacore), 25C, FcgR bound per antibody captured. For orientation: In SPR one partner is held on a chip, and binding of the other changes the refractive index at the surface.
As to B1, the “Binding to human FcgRs (parent B3 = 100)” value is 132.
Still for that read-out and setting: in the case of B2 it was 137; in that of B3, 63; in that of B4, 135.
B5: the “Binding to human FcgRs (parent B3 = 100)” value is 80.
For the molecule B6, the “Binding to human FcgRs (parent B3 = 100)” value was found to be 50.
As for B7, the “Binding to human FcgRs (parent B3 = 100)” value turned out to be 71.
Turning to B8, the “Binding to human FcgRs (parent B3 = 100)” value was 71.
Still for that read-out and setting: to B9 belongs 128.
The same measure, in the same setting: to B10 belongs 75.
Same read-out and setting: to B11 belongs 132; to B12, 130; to B13, 127.
B14: the “Binding to human FcgRs (parent B3 = 100)” value worked out at 127.
With B15, the “Binding to human FcgRs (parent B3 = 100)” value amounted to 125.
In the case of B16, the “Binding to human FcgRs (parent B3 = 100)” value stood at 148.
Take B17: the “Binding to human FcgRs (parent B3 = 100)” value turned out to be 139.
B18: the “Binding to human FcgRs (parent B3 = 100)” value is 72.
Still for that read-out and setting: in the case of B19 it was 131; in that of B20, 67.

Another test deals with T2, human FcγRIIaH extracellular domain, His-tagged (human, UniProt P12318 34-217).
T2 construct: also called human FcgRIIaH; FcγRIIa type H
T2 sequence: T1 chain with R134H
The test is described as above.
Consider B1, for which the “Binding to human FcgRs (parent B3 = 100)” value was 169.
Still for that read-out and setting: to B2 belongs 169; to B3, 64; to B4, 156.
The same measure, in the same setting: in the case of B5 it was 99.
On the same count and under the same terms, in the case of B6 it was 38.
For B7, the “Binding to human FcgRs (parent B3 = 100)” value was 99.
For the molecule B8, the “Binding to human FcgRs (parent B3 = 100)” value was 79.
Take B9: the “Binding to human FcgRs (parent B3 = 100)” value amounted to 136.
In the case of B10, the “Binding to human FcgRs (parent B3 = 100)” value is 82.
The same measure, in the same setting: to B11 belongs 172; to B12, 152.
For B13, the “Binding to human FcgRs (parent B3 = 100)” value came out at 151.
Same read-out and setting: to B14 belongs 138; to B15, 176; to B16, 128.
Same read-out and setting: in the case of B17 it was 129; in that of B18, 97.
Same read-out and setting: to B19 belongs 157; to B20, 96.

The target of another test is T3, human FcγRIIb extracellular domain, His-tagged (human, UniProt P31994 43-217).
T3 construct: also called human FcgRIIb
T3 sequence: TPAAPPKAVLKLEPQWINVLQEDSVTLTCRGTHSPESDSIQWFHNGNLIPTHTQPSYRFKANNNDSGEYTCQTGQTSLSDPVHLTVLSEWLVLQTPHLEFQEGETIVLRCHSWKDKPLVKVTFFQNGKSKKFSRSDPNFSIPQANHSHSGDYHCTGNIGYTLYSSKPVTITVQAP
The test is described as above.
With B1, the “Binding to human FcgRs (parent B3 = 100)” value is 283.
On the same count and under the same terms, in the case of B2 it was 174.
The same measure, in the same setting: in the case of B3 it was 90; in that of B4, 179; in that of B5, 124.
Still for that read-out and setting: in the case of B6 it was 55; in that of B7, 114.
For B8, the “Binding to human FcgRs (parent B3 = 100)” value came out at 107.
With B9, the “Binding to human FcgRs (parent B3 = 100)” value was found to be 130.
Consider B10, for which the “Binding to human FcgRs (parent B3 = 100)” value was 108.
As for B11, the “Binding to human FcgRs (parent B3 = 100)” value came out at 184.
For the molecule B12, the “Binding to human FcgRs (parent B3 = 100)” value was determined as 252.
The same measure, in the same setting: to B13 belongs 148; to B14, 195; to B15, 283.
On the same count and under the same terms, to B16 belongs 156; to B17, 198.
As for B18, the “Binding to human FcgRs (parent B3 = 100)” value is 108.
For B19, the “Binding to human FcgRs (parent B3 = 100)” value is 160.
In the case of B20, the “Binding to human FcgRs (parent B3 = 100)” value was determined as 100.

For the next test, the target named is T4, human FcγRIIIaV extracellular domain, His-tagged (human, UniProt P08637 17-208).
T4 construct: also called human FcgRIIIaV
T4 sequence (P08637 17-208 F176V): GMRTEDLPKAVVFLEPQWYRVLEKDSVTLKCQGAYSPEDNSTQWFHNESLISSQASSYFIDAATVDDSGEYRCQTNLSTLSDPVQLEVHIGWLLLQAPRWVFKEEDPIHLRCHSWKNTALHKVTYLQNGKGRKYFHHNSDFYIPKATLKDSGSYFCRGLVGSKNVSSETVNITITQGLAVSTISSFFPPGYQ
Described as above.
Turning to B1, the “Binding to human FcgRs (parent B3 = 100)” value was 205.
The same measure, in the same setting: to B2 belongs 187; to B3, 36; to B4, 53.
The same measure, in the same setting: to B5 belongs 111; to B6, 63; to B7, 51.
On the same count and under the same terms, in the case of B8 it was 48; in that of B9, 40; in that of B10, 47.
B11: the “Binding to human FcgRs (parent B3 = 100)” value is 176.
The same measure, in the same setting: to B12 belongs 93; to B13, 183.
Still for that read-out and setting: in the case of B14 it was 164; in that of B15, 145.
The same measure, in the same setting: to B16 belongs 135; to B17, 235; to B18, 155.
Consider B19, for which the “Binding to human FcgRs (parent B3 = 100)” value turned out to be 188.
Still for that read-out and setting: in the case of B20 it was 46.
